Assay results: patent US20140057840A1, “ANTI-ANDROGENIC AGENT, SEBUM SECRETION BLOCKER, HAIR GROWTH STIMULANT, AND FOOD OR BEVERAGE” (LOTTE CO., LTD., priority 2009, published 2014)

Legend:
[1] = tested on: testosterone 5α-reductase; assay: Testosterone 5α-reductase blocking test; assay type: biochemical; settings: result in words; enzyme solution S-9; FIG. 1
Experimental: 1. 0.5 ml of 5 mM Tris-HCl buffer solution (pH 7.2) was added to 0.1 ml of 3.0 mM testosterone solution (dissolved in propylene glycol).
2. Further, 0.1 ml of 6.7 mM NADPH solution (dissolved in 5 mM Tris-HCl buffer solution (pH 7.2)) and 0.05 ml of a sample solution (dissolved in 50% ethanol) were added thereto, the mixture was preheated at 37° C. and 0.1 ml of an enzyme solution (S-9, Oriental Yeast Co., Ltd.) was added to incubate for 1 hour.
In this test, cow's lactoferrin was prepared to be used as the lactoferrin, and saw palmetto was used as a control.
3. Then, 3 ml of dichloromethane was added to terminate the reaction, 0.5 ml of an internal standard solution (0.1 mg/ml of p-hydroxybenzoic acid n-hexyl ester) was added thereto followed by shaking for 10 minutes, and the mixture was centrifuged at 3000 rpm for 10 minutes.
4. The dichloromethane layer was separated, collected and dried under reduced pressure. […] The residual testosterone was measured by HPLC from the obtained sample solution.
The measurement was carried out by eluting with methanol/water (65/35) and monitoring at 254 nm under the conditions of using a YMC A-302 (internal diameter 4.6×150 mm) column at a column temperature of 40° C. at a flow rate of 1 ml/min. The measurement was carried out using the internal standard substance method and the blocking rate (%) was determined using the following formula. […]

androgen receptor = biological target: T1, androgen receptor (Mus musculus, UniProt P19091); assay: Androgen receptor binding blocking test (DHT-dependent proliferation of SC-3 cells, MTT assay); assay type: cell-based; settings: SC-3 cell, 10^−8M DHT, FIG. 2
T1 construct: An androgen-dependent mouse breast cancer cell SC-3 cell; endogenous in cells; host or cells: SC-3 mouse breast cancer cells
T1 sequence (P19091 1-899): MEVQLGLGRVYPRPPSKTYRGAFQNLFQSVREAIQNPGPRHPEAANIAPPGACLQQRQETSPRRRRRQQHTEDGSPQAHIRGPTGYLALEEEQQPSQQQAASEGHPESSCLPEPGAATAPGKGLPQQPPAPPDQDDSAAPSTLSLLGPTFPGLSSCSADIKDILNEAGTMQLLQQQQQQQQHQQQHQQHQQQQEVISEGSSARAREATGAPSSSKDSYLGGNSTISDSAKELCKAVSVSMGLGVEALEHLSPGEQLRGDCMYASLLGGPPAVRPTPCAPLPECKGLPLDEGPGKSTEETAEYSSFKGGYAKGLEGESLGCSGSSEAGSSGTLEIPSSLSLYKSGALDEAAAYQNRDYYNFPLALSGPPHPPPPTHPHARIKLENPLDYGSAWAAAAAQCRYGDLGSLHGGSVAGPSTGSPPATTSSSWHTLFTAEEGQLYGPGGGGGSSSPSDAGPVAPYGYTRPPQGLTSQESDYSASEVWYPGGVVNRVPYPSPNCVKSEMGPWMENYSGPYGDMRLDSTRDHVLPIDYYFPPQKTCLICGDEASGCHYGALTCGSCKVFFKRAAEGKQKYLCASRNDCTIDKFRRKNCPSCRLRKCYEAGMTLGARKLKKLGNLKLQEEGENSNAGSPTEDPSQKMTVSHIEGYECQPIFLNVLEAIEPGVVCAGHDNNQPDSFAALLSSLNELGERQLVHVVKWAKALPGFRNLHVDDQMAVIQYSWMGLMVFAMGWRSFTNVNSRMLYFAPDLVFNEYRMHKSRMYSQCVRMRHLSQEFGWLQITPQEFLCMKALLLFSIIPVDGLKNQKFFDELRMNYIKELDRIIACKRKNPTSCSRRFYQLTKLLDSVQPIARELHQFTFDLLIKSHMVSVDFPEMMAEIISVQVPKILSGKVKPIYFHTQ
Experimental: 24 Hours later, the culture medium was exchanged with HMB medium (0.1% BSA-containing Ham F12+MEM medium) to which the test sample and 10^−8M DHT were added, and the cell was cultured for 48 hours.
Then, in accordance with MTT assay, the cell proliferation was evaluated by measuring the absorbance at 570 nm, which is the absorption maximum of blue formazan.
To correct the influence of adherent cells, the absorbance at 650 nm was also measured simultaneously, and the difference between both absorbances was used as the produced amount of blue formazan. At the same time with the above, to examine the effect of the sample alone on SC-3 cell, the same culture and measurement were carried out by adding the sample alone, without adding DHT, to the HMB medium. […] Based on the measurement results, the binding blocking rate representing the anti-androgenic activity was determined using the following formula. […]
A: The absorbance when DHT was added but the sample was not added
B: The absorbance when DHT was not added and the sample was not added
C: The absorbance when DHT was added and the sample was added
D: The absorbance when DHT was not added but the sample was added

hamster sebocytes = assay: Sebocyte culture test (sebum synthesis amount, Oil Red O staining); assay type: cell-based, golden hamster; settings: medium with 1×10^−6M testosterone; for sebum synthesis amount suppressed to: about 2 weeks, FIG. 3
Experimental: 1. The test was carried out using a hamster sebocyte culture kit KB-1000 (manufactured by KURABO […] LTD.).
The sebocyte cell derived from the auricula of a normal golden hamster was inoculated in a 24-well plate in a density of 5.0×10^4 cells/well. During the test, the cell was cultured in medium containing testosterone in a concentration of 1×10^−6M.
2. The cell was cultured for several days until confluent, and the medium was exchanged with medium containing the test sample. The medium was exchanged with sample medium every other day and the culture was continued for about 2 weeks.
In this test, cow's lactoferrin was prepared to be used as the lactoferrin, and spironolactone was used as a control.
3. Then, using a sebum synthesis assay kit SE-3001 (manufactured by KURABO […], LTD.), a WST-8 solution was added to each well and incubated for 30 minutes at 37° C. The supernatant was assayed at a wavelength of 450 nm, and the number of viable cell was counted.
4. Further, the supernatant was stained with Oil Red O and observed under a microscope while extracted with 100% isopropanol and measured at a wavelength of 520 nm for the lipid synthesis amount.
The correction was made using the following formula, and the lipid synthesis amount per cell was compared.
Comparison of lipid synthesis amount per cell=absorbance B/absorbance A
Absorbance A: cell number measured value (450 nm)
Absorbance B: lipid synthesis amount measured value (520 nm)

B1: lactoferrin (protein, UniProt P24627 20-708, looked up)
Lactotransferrin: APRKNVRWCTISQPEWFKCRRWQWRMKKLGAPSITCVRRAFALECIRAIAEKKADAVTLDGGMVFEAGRDPYKLRPVAAEIYGTKESPQTHYYAVAVVKKGSNFQLDQLQGRKSCHTGLGRSAGWIIPMGILRPYLSWTESLEPLQGAVAKFFSASCVPCIDRQAYPNLCQLCKGEGENQCACSSREPYFGYSGAFKCLQDGAGDVAFVKETTVFENLPEKADRDQYELLCLNNSRAPVDAFKECHLAQVPSHAVVARSVDGKEDLIWKLLSKAQEKFGKNKSRSFQLFGSPPGQRDLLFKDSALGFLRIPSKVDSALYLGSRYLTTLKNLRETAEEVKARYTRVVWCAVGPEEQKKCQQWSQQSGQNVTCATASTTDDCIVLVLKGEADALNLDGGYIYTAGKCGLVPVLAENRKSSKHSSLDCVLRPTEGYLAVAVVKKANEGLTWNSLKDKKSCHTAVDRTAGWNIPMGLIVNQTGSCAFDEFFSQSCAPGADPKSRLCALCAGDDQGLDKCVPNSKEKYYGYTGAFRCLAEDVGDVAFVKNDTVWENTNGESTADWAKNLNREDFRLLCLDGTRKPVTEAQSCHLAVAPNHAVVSRSDRAAHVKQVLLHQQALFGKNGKNCPDKFCLFKSETKNLLFNDNTECLAKLGGRPTYEEYLGTEYVTAIANLKKCSTSPLLEACAFLTR
notes: cow's lactoferrin; protein present in secretory fluids such as milk, tears, saliva, bile of mammals
testosterone 5α-reductase blocking activity [1]: no testosterone 5α-reductase blocking activity | binding blocking activity (binding blocking rate) (androgen receptor; concentration of 60 ppm, 48 hours): about 85% | binding blocking activity, concentration dependence (androgen receptor; result in words): concentration-dependent binding blocking activity | sebum synthesis amount suppressed to (hamster sebocytes; 10 ppm): 60% | sebum synthesis amount suppressed to (hamster sebocytes; 20 ppm): 60% | sebum synthesis amount, concentration dependence (hamster sebocytes; result in words, microscopic observation and absorbance measurement): suppressed the sebum synthesis amount in a concentration-dependent manner
